# Measured values reported in the RNAGym collection of RNA variant scans (doi:10.1073/pnas.2313332121).
# B1: TPR t1 (parent)
# chain: GACCAAUCUGCCCUCAGAGCUCGAGAACAUCUUCGGAUGCAGAGGAGGCAGGCUUCGGUGGCGCGAUAGCGCCAACGUCCUCAACCUCCAAUGCAUCCCACCACAUGAUGAUGCCUGAAGAGCCUUGGUUUUUUG
# Variants of: B1
# Test: polymerase ribozyme fitness, log enrichment relative to wild type (log ratio); higher = more active; in vitro selection for triplet polymerase activity
# Outline: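 After PCR construction and transcription, each subunit's mutant library from a heterodimeric triplet polymerase ribozyme was annealed with a biotinylated primer, the partner subunit and triplets. Incubation was frozen, at −7 °C, and extended constructs were gel-excised, bound to streptavidin beads and amplified by RT-PCR, in one selection round done in triplicate. Fitness is the logarithm of a genotype's enrichment divided by that of the wild type, from inverse-variance-weighted replicate averages of Illumina-sequenced inputs and outputs. The base of the logarithm is 2, and genotypes needed ≥10 input reads and ≥1 read per output.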
row,Variant,polymerase ribozyme fitness (log ratio)
1,GACCAAUCUGCCCUCAGAGCUCGAGAACAUCUUCGGAUGCUGAGGAGGCAGGCUUAGGUGGCGCGAUAGCGCCAACGUCCUCAACCUCCAAUGCAUCCCACCACAUGAUGAUGCCUGAAGAGCCUUGGUUUUUUG,-1.52
2,GACCAAUCUGCCCUCAGAGCUCGAGAACAUCUUCGGAUGCUGAGGAGGCAGGCUUCGGUGGCGCGAUAGCGCCAACGUCCUCAACCUCCAAUGCAUCCCACCACAUGAUGAUUCCUGAAGAGCCUUGGUUUUUUG,-3.98
3,GACCAAUCUGCCCUCAGAGCUCGAGAACAUCUUCGGAUGCUGAGGAGGCAGGCUUCGGUGGCGCGAUAGCGCCAACGUCCUCAACCUCCAAUGCAUCCCACCACAUGAUGAUCCCUGAAGAGCCUUGGUUUUUUG,-3.1
4,GACCAAUCUGCCCUCAGAGCUCGAGAACAUCUUCGGAUGCUGAGGAGGCAGGCUUCGGUGGCGCGAUAGCGGCAACGUCCUCAACCUCCCAUGCAUCCCACCACAUGAUGAUGCCUGAAGAGCCUUGGUUUUUUG,-2.3
5,GACCAAUCUGCCCUCAGAGCUCGAGAACAUCUUCGGAUGCUGAGGAGGCAGGCUUCGGUGGCGCGAUAGCGCCAACGUCCUCAACCUCCAAUGCAUCCCACCAAAUGAUGAUGCCUGAAGAGCCUUGGUUUUUUG,-3.22
6,GACCAAUCUGCCCUCAGAGCUCGAGAACAUCUUCGGAUGCUGAGGAGGCAGGCUUCGGUGGCGCGAUAGCGCCAACGUCCUCAACCUCCAAUGCAUCCCCCCACAAGAUGAUGCCUGAAGAGCCUUGGUUUCUUG,-2.89
7,GACCAAUCUGCCCUCAGAGCUCGAGAACAUCUUCGGAUGCUGAGGAGGCAGGCUUCGGUGGCGCGAUAGCGCCAACGUCCUCAACCUCCAAUCCAUCCCACCACAUGAUGAUGCCUGAAGAGCCUUGGUUUUUUG,-2.07
8,GACCAAUCUGCCCUCAGAGCUCGAGAACAUCUUCGGAUGCUGAGGAGGCAGGCUUCGGUGGCGCGAUAGCGCCAACGUCCUGAACCUCCAAUGCAUCCCACCACAUGAUGAUGCCUGAAGAGCCUUGGUUUUUUG,-2.37
9,GACCAAUCUGCCCUCAGAGCUCGAGAACAUCUUCGGAUGCUGAGGAGGCAGGCUUCGGUGGCGCGAUAGCGCCAACGUCCUCAACCUCCAAUGCAUCCCACCACAUGAUGAUAUAUGAAGAUCCUUGGUUUUUUG,-5.49
10,GACCAAUCUGCCCUCAGAGCUCGAGAACAUCUUCGGAUGCUGAGGAGGCAGGCUUCGGUGGCGCGAUAGCGCCAACGUCCUCAACCUCCAAUGCAUCCCACCACAUGAUGAUGCCUGAAGAGUCUUGGUUUUUUG,-0.183
11,GACCAAUCUGCCCUCAGAGCUCGAGAACAUCUUCGGAUGCUGAGGAGGCAGGCUUCGGUGGCGCGAUAGCGCCAACGUCCUCAACCUCCGAUGCAUCCCACCACAUGAUGAUGCCUGAAGAGCCUUGGUUUUUUG,-0.36
12,GACCAAUCUGCCCUCAGAGCUCGAGAACAUCUUCGGAUGCUGAGGAGGCAGGCUUCGGUGUCGCGAUAGCGCCAACGUCCUCAACCUCCAAUGCAUCCCACCACAUGAUGAUGCCUGAAGAGCCUUGGUUUUUUG,-0.703
13,GACCAAUCUGCCCUCAGAGCUCGAGAACAUCUUCGGAUGCUAAGGAGGCAGACUUCGGUGGCGCGAUAGCGCCAACGUCCUCAACCUCCAAUGCAUCCCACCACAUGAUGAUGCCUGAAGAGCCUUGGUUUUUUG,-3.18
14,GACCAAUCUGCCCUCAGAGCUCGAGAACAUCUUCGGAUGCUGAGGAGGCAGGCUUCGGUGGCGCGAUAGCGCCAACGUCAUCAACCUCCAAUGCAUCCCACCAUAUGAUGAUGCCUGAAGAGCCUUGGUUUUUUG,-6.34
15,GACCAAUCUGCCCUCAGAGCUCGAGAACAUCUUCGGAUGCUGAGGAGGCAAGCUUCGGUGGCGCGAUAGCGCCAACGUCCUCAACCGCCAAUGCAUCCCACCACAUGAUGAAGCCUGAGGAGCCUUGGUUUUUUG,-4.72
16,GACCAAUCUGCCCUCAGAGCUCGAGAACAUCUUCGGAUGCUGAGGAGGCAGGCUUCGGUGGGGCGAUAGCGCCAACGUCCUCAACCUCCAAUGCAUCCCACCACAUGAUGAUGCCUGAAGAGCCUUGGUUUUUUG,-3.92
17,GACCAAUCUGCCCUCAGAGCUCGAGAACAUCUUCGGAUGCUGAGGAGGCAGGCUUCGGUGGCGCGAUAGCGGCAACGUCCUCAACCUCCAAUGCAUCCCACCACAUGAUGAUGCCUCAAGAGCCUUGGUUUUUUG,-5.06
18,GACCAAUCUGCCCUCAGAGCUCGAGAACAUCUUCGGAUGCUGAGGAGGAAGCCUUCGGUGGCGCGAUAGCGUCAACGUCCUCAACCUCCAAUGCAUCCCACCACAUGAUGAUGCCUGAAGAGCCUUGGUUUUUUG,-3.5
19,GACCAAUCUGCCCUCAGAGCUCGAGAACAUCUUCGGAUGCUGAGGAGGCAGGCUUCGGUGGCGCGAUAGCGGCAACGUCCUCAACCUCCAAUGCAUCCCACCACAUGAUGAUGCCUGAAGAGCCGUGGUUUUGUG,-2.77
20,GACCAAUCUGCCCUCAGAGCUCGAGAACAUCUUCGGAUGCUGAGGAGGCAGGCUUCGGUGGCGCGAUAGCGCCAACGUCCUCAACCUCCCAUGCAUCCCACCACAUGAUGAUGCGUGAAGAGCCUUGGUUUUUUG,-4.39
21,GACCAAUCUGCCCUCAGAGCUCGAGAACAUCUUCGGAUGCUGAGGAGGCAGGCUUCGGUGGCGCGAUAGCGCCAACGUCCUCAACCUCCCAUGCAUCCCACCACAUGAUGAUGCCUGAAGAGCGUUGGUUUUUUG,0.559
